Measurements taken from publication PMC7375048, “The impact of acute rosiglitazone on insulin pharmacokinetics at the blood‐brain barrier” (Endocrinology, Diabetes & Metabolism, 2020).
Structures can show the parent of a compound that is named as a salt.

What was measured:
[1] = tested on: brain capillary sequestration; format: in vivo, mouse
Experimental: Two and a half minutes later, blood was collected from the carotid, the mice decapitated and the whole brain removed. […] Homogenates were then centrifuged at 3500 g for 20 minutes at 4°C with a swinging bucket rotor (Beckman Coulter). The brain capillary fraction contained in the pellet and the supernatant containing the brain parenchyma were carefully separated. […] Fractions were expressed as percentages of total brain.

[2] = mouse, in vivo, iv
Experimental: (§1) Mice were decapitated, and the brain was collected immediately, dissected into the hypothalamus, olfactory bulb and remaining whole brain and weighed. Blood was centrifuged at 5400g for 10 min and serum collected. Radioactivity in 50 µL of serum and entire brain samples were counted in a gamma counter (Wizard2; Perkin Elmer).

murine BBB [3] = assay: Blood-to-brain 125I-insulin transport, multiple-time regression analysis; format: in vivo, mouse
Experimental: (§2) This experimental set‐up was based on previous studies investigating the acute effect of rosiglitazone. ^35 , ^36
as §1
Exposure time is calculated by the formula:(1) Exposure time=∫0tCp(t)dt/Cp(t) where Cp(t) is the level of radioactivity (cpm) in serum at time (t). Exposure time corrects for the clearance of peptide from the blood. […] The slope of the linearity measures K i and is reported with its standard error term. […] For cardiac perfusion studies, formula 2 is employed, using the brain/perfusate ratios and the clock time is used in place of exposure time.

murine BBB [4] = assay: Transcardiac brain perfusion of 125I-insulin, multiple-time regression analysis; settings: mouse, in vivo
From the text: as §2
The perfusate was freshly prepared for each study day. Perfusate was collected throughout the study to determine the average cpm/µL of perfusate. After perfusion, the olfactory bulb was collected and the brain dissected into regions (frontal/parietal/occipital cortex, striatum, hypothalamus, hippocampus, thalamus, cerebellum, midbrain and pons/medulla) according to Glowinski and Iversen; ^38 each region was weighed separately. The amount of radioactivity was determined by a gamma counter (Wizard2, Perkin Elmer). Brain/perfusate ratios are calculated by dividing the cpm in a gram of brain by the cpm in a µL of perfusate to yield units of µL/g.
Exposure time is calculated by the formula:(1) Exposure time=∫0tCp(t)dt/Cp(t) where Cp(t) is the level of radioactivity (cpm) in serum at time (t). Exposure time corrects for the clearance of peptide from the blood. […] The slope of the linearity measures K i and is reported with its standard error term. The y‐intercept of the linearity measures V i, the initial volume of distribution in brain at t = 0. ^37 Blasberg, Fenstermacher and Patlak originally described V i as the volume of test substance that rapidly and reversibly exchanges with the plasma (Blasberg 1983). For cardiac perfusion studies, formula 2 is employed, using the brain/perfusate ratios and the clock time is used in place of exposure time.

P‐glycoprotein = settings: cited from earlier work
From the text: (§3) However, we were interested in the direct effect that would be mediated at the luminal surface of the brain endothelial cell, rather than an effect within the CNS. Indeed, PPARγ activation is known to have a direct effect on cerebral vascular expression of proteins, including various adhesion molecules and metalloproteinases. ^61 Therefore, we know brain en ...

murine BBB [5] = settings: mouse, in vivo, iv; cited from earlier work
From the text: as §3

125I‐insulin: human insulin (Sigma‐Aldrich) radioactively labelled with 125I by the chloramine‐T method
fraction of radioactivity in brain parenchyma vs capillary fraction ([1]; mouse, in vivo, iv): majority
average half‐time clearance from blood [2]: 1.54 min
BBB transport rate K i, hypothalamus (murine BBB [3]; mouse, in vivo): 1.39 ± 0.28 µL/g‐min
average rate of transport K i, hypothalamus (murine BBB [3]; mouse, in vivo): 1.75 µL/g‐min
average rate of transport K i, olfactory bulb (murine BBB [3]; mouse, in vivo): 2.25 µL/g‐min
vascular binding V i, hypothalamus (murine BBB [3]; mouse, in vivo): 11.6 ± 2.0 µL/g
vascular binding V i, olfactory bulb (murine BBB [3]; mouse, in vivo): 10.4 ± 4.8 µL/g
BBB transport rate K i, whole brain (murine BBB [3]; mouse, in vivo, iv): 1.26 ± 0.17 µL/g‐min
BBB transport rate K i following cardiac perfusion, hypothalamus (murine BBB [4]): 6.11 ± 1.92 µL/g‐min
BBB transport rate K i following cardiac perfusion, olfactory bulb (murine BBB [4]): 3.34 ± 1.31 µL/g‐min
change of hypothalamic BBB transport rate in the absence of serum (murine BBB [4]): nearly tripled
vascular binding V i following cardiac perfusion, hypothalamus (murine BBB [4]): -4.5 ± 5.7 µL/g
vascular binding V i following cardiac perfusion, olfactory bulb (murine BBB [4]): 13.5 ± 4.4 µL/g

CN(CCOc1ccc(CC2SC(=O)NC2=O)cc1)c1ccccn1 (centres unmarked) [RSG, rosiglitazone maleate]
effect on capillary/parenchyma distribution of 125I-insulin ([1]; 10 µg RSG pretreatment, data not shown): no overt differences
effect on 125I-insulin vascular binding (V i), whole brain (murine BBB [3]; 1 µg S961 (P = .0006), 10 µg RSG pretreatment with S961 (P = .044), two-way ANOVA, Sidak): prevented this decrease in binding
effect on 125I-insulin vascular binding (V i), hypothalamus (murine BBB [3]; 1 µg S961 (P = .002), 10 µg RSG pretreatment with S961 (P = .025), two-way ANOVA, Sidak): prevented this decrease in binding
effect on rate of 125I-insulin BBB transport (murine BBB [3]; whole brain, olfactory bulb, hypothalamus, 10 µg RSG pretreatment, 1 µg S961 co-injected): did not significantly alter
P‐glycoprotein interaction (P‐glycoprotein): substrate of p‐glycoprotein
penetration of the murine BBB (murine BBB [5]): 0.045 % of an iv injected dose
time of brain uptake (murine BBB [5]): ≤ 1 min
